System: FMDV 3D polymerase wild type (Foot-and-mouth disease virus C-S8c1?)
Assay: EMSA

Work on “heteropolymeric RNA template-primer of the RNA binding assay” yielded a binding signal (% RNA retarded) of 62.

Source: publication PMC2928812
